Measurements published in patent US20060287320A1, “Preparation of thioarabinofuranosyl compounds and use thereof” (Southern Research Institute, priority 1998, published 2006).

Experiments:
Experiment in all cases: purified protein, by the assay type
[1] = substrate: Nc1ccn([C@@H]2S[C@H](CO)[C@@H](O)[C@@H]2O)c(=O)n1
[2] = substrate: Nc1ccn([C@H]2C[C@H](O)[C@@H](CO)O2)c(=S)n1; conditions: other: dCyd deaminase activity from human placenta, pH 7.4, mean and standard deviation from 3 experiments
Experimental: (§1) Reactions were carried out in solutions containing 20 mM potassium phosphate (pH 7.4), 100 mM KCl, various concentrations of radiolabeled nucleoside, and enzyme. The reactions were stopped with acid, the substrate was separated from the product by paper chromatography, and the radioactivity in each were determined. The kinetic constants were determined from linear double-reciprocal plots of 1/velocity versus 1/concentration of the substrate. The best line was determined by linear regression from at least 5 datum points, and the Km and Vmax were determined from the x and y intercepts. The data presented are the mean and standard deviation from 3 separate experiments.

[3] = substrate: Nc1ccn([C@H]2C[C@H](O)[C@@H](CO)O2)c(=O)n1; conditions: other: dCyd deaminase activity from human placenta, pH 7.4, mean and standard deviation from 3 experiments
Experimental: as §1

[4] = other: dCyd deaminase activity from human placenta, pH 7.4, mean and standard deviation from 3 experiments

B1: dCyd Deaminase Activity Isolated from Human Placenta (Homo sapiens) (protein)
chain: MAQKRPACTLKPECVQQLLVCSQEAKKSAYCPYSHFPVGAALLTQEGRIFKGCNIENACYPLGICAERTAIQKAVSEGYKDFRAIAIASDMQDDFISPCGACRQVMREFGTNWPVYMTKPDGTYIVMTVQELLPSSFGPEDLQKTQ
With B1 the Km [1, 4] was 2944 ± 1023 µM, the Vmax [1, 4] was 2.1e-05 µmol/min/mg and the Km [2] was 111 ± 77 µM. For the same protein, the Vmax [2] was 3.7e-05 µmol/min/mg, the Km [3] was 23 ± 2.7 µM and the Vmax [3] was 1.3e-05 µmol/min/mg.

B2: cytidine deaminase (Homo sapiens) (protein)
chain: B1 chain
B2 gave a Km ([1]; other: cytidine deaminase, radioactive substrates) of 2570 µM.
